Experimental data reported in the DeepSol protein solubility set.

assay: soluble on expression in E. coli; label from the status in PepcDB or PDB records

Sequence	soluble on expression in E. coli
MFKRTKLILIATILLSGCSTTNNESNNETKSVPEEMEASKYVGQGFQPPAEKDAVEFAKKHKDKIAKRGEQFFMDNFGLKVKATNVVGSGDGVEVFVHCDDHDIVFNASIPFDKSIIDSDSSLRSEDKGDDMSTLVGTVLSGFEYRAQKEKYDNLYKFFKENEKKYQYTGFTKEAINKTQNSGYENEYFYIVANIPTLQEYRKYYEPLIKKNNLNFKKGMKQARKGVGYKAAIEVHTTLFSRSSNFSKDKKLDDVIDLSESTKKLHLNFENTKIFLQLAKSTISTNRVNYSDNESIRIEVELEHHHHHH	soluble
MTNFRPCFLIPCYNHGKTIPAVVESLMSYGYPMIIVDDGSENETKRILEEVTQHNESITLITLAENQGKGGAVIAGIEKAYQQSYSHAIQIDADGQHDLEALPKLIAESQEHPTALISGQPIYDESVPKSRLYGRYATHIWVWIETLSFTIKDSMCGFRSYPIGPTINVLERAVLGRRMDFDTEIMVRMYWNETDIRFINTRVIYPEDGISHFDALWDNVKISWMHTKLFFGMLPRIPSLLKRKPVQEDHWSSHAERGTILGIQFLLWIYSTFGRKVFSLLLKPVMAYYYLRGGSVKDASDDFIQQVNAYARIKGIQLPEKLTTYRHLVSFGETMLDKLAAWRGDFSDKNLTVHGIEHYQTLAQREKGIVLLGSHLGNLELCRALSRRHTHLKINALVFTEHAERFNTVMKTVNPQSEVNVIQVSKIGPDTAILLQQKIDDGEWIVIVGDRTSVTKENRVIWADFLGKPAPFPQGPFMLASILKQPVYLMFGLRDDTQKDPLFDVYLEPFSEQIILPRGKREEALQEVVQNYAQRLEHFTLKAPSQWYNFFNFWQLTGKKDDNLEHHHHHH	soluble
MTDESDALCATEKEIMHATHRALVNSGYAELSISRISDELDKAKSTIYHYYDSKDALLLRFLRFTVDRFEATINTSIGDNPKEDLNHIISTLLPCQLPEEKRQLHSVLVTLSPQALERAVFREQFTEIDTRLATIIEKTVRRGVDADVFRDVDPTHAAEHILATIKGTMYSRLTTNREAATAAAKASLFSYIDSHLIS	not soluble
MSLEKLLRYLNDNDADKWQKNREKLDDETKAYYAEDLSLMDVLNDLWNGQSEQAATLYFGCYEKAAQNNFPSICEGEKIPLSQIRDKADQSIINLLEASKDKIPFSRALLDSIHATEYPVDSAMLQRLQNIREVALLEGMLKAPTPIIYQTYVKEYPNGKFIAQVNASENVRLYQLVKTAPTPANFKAFFEDPEMQKYYQDRGPRPYLAEVRTLYDDFLFQRIDSLKKEGNATAIRQIIDDYKNTPYLSTGARTHLNDLEYLSEKADFELLKPAIVNSESLGLLQEFLKTHKYKEFRDQAKNLRAPFILQAIVSTPTTVKYYTQGRLIKCCETDSTGNITTSYTYNDKGQLTTTLSVTEKNGQPINEVQTSRLYDPQGHCIFEVKTNPKTKTDFYRRARRIGIDGSIESDSLKYMDGRYTVSSYNKQGLLTETKEYNKNGEMEGYTVNKYDDKGRMTESQHQNMLFVNSPNQILSQKELYEYDKYGYLTRIVYQRIFGNSQKTSGCLTCLYDEYGNRIDGDSYYEYDNTGQWICRTSYDNPQQVERIQYIYKEGHHHHHH	soluble
SNAEWESITPPVVDAPAVVEFFSFYCPPCYAFSQTMGVDQAIRHVLPQGSRMVKYHVSLLGPLGHELTRAWALAMVMKETDVIEKAFFTAGMVEKRLHSPDDVRRVFMSATGISRGEYDRSIKSPAVNDMVALQERLFKEYGVRGTPSVYVRGRYHINNAAFGAFSVENFRSRYAAVVRKLLAGNPDAD	soluble
MGYCVLHLEKAKGADSGMSAHIERTIVPKNIDPTRTHLNRELIMFPDGVCNRTLAIRHRLDTAGLKRKIGKNQVQAIRIVLSGTHEDMARMEDEGRLGEWCDDSVAWLRETYGAENLVSAVLHMDEETPHIHATVVPIVQGERRKQKKEENARRRYRTKAPAPRLCADEVMSRASLIRYQDTYAEHMEKYGLKRGVRGSLAKHLSTHEYYRSLITQGEDIQANIATLLSRETEASRIIAEAEQAKQELARIKAETKTVELKNSAARTATAALNGIGSLLGSNKMSRLESENRQLHGEVAELKESIEQMRTDMQKMRDSYTAEQLRVSEQHQREIGNFRRIIDKAKEWFPILAEFLRIERICRSVGLSERHTDELLQGKVLVVTGKLFSDEYKRSFTVEKVRLKVGREERDGKTVLDLLVDRVPIAAWFKEKWEKVSINRFRRNEMTIQKERGVRLLEHHHHHH	not soluble
GHMLVMRPAQAADLPQVQRLAADSPVGVTSLPDDAERLRDKILASEASFAAEVSYNGEESYFFVLEDSASGELVGCSAIVASAGFSEPFYSFRNETFVHASRSLSIHNKIHVLSLCHDLTGNSLLTSFYVQRDLVQSVYAELNSRGRLLFMASHPERFADAVVVEIVGYSDEQGESPFWNAVGRNFFDLNYIEAEKLSGLKSRTFLAELMPHYPIYVPLLPDAAQESMGQVHPRAQITFDILMREGFETDNYIDIFDGGPTLHARTSGIRSIAQSRVVPVKIGEAPKSGRPYLVTNGQLQDFRAVVLDLDWAPGKPVALSVEAAEALGVGEGASVRLVAVGS	soluble
MTVTSSAAIDIGGGGGGRRSDRLDSDRTSEDMSFIASPANIGASFVDVQNESSGSIDTATATLHELNYTFGMPPVTEESENMPQNYETVVELLPGEERAPINKLTEFPIEGGSLFVTNFRIVVILKDKEVEEALRFLVFPLQDIEQIDLAIPAFIHLSLKIGRMFTICFKTAEDAALVHKILYTAFQRLNRPISSIYTSRPQDWTSKNTDNPMQSLNAFAWKFSEAVDELDRDGKLPSWLLRADSVAQEITHIDFNRLGMSEHFQISSVNENFEVCPTYPEKIIVPKGITDDDIRKGAPYRSIGRFPAVIWRCRKTRAVLMRSSQPQVGILSWRNPTDEKIIEEAVKASRIEGEEKKQFIIMDARGYTSAFANRARSGGFENTEYYQQAKLEFLGLPNIHAVRGSFNNVRTMLHNLGPNEQLLTSLQTTGWLLNLSNLLVNAANCADHLSKGHSVLVHCSDGWDRTTQVTTLAKIMLDEYYRTVKGFEELIRRDWIAFGHKLYDRQLVAFGNWGTSDERSPVFLQFLEAVRHLQREQPTLFQFTHAYLIKLAKHAYSGLFGSFLFNSHKERREAMEKCKGTLVDIWRFIGPHNEEYVNQSFDEHYTGAVKPQIFSPKEERPLSGCTTPMNTSTSTNLVKSKSSESINSLNVDGSAKESSQQHPTCSTTPSDNTNSLPMSTSFIQQSLYQPKVRGVAAIDRDGVIRFEDDEQAMLRKKNKLRAEEIRRKDEKIEELRRRAVLDTNKVSPGQRQSYSESDVETTGTLERVMSDVSMVDPVNELPHFKPNTTWEGESGHCAYCKKEFNKLSVYVEDRQHHCRNCGRVVCEDCSKNRFSVIEEGKSVQKRACDSCYDSMHETDLKLSRATSLSEMSSFDSFGPSSPPASSTSSSSLNMLASMSPTRPQPIPISCKSSSNSISSPRPSPGEFSRHSSTQAVKG	not soluble
MGSDKIHHHHHHMCPARLRTPRTASLPTHRRSAMTTANPLNTSFTSADAAELYQVPNWSGGWFRVSDKGLMEATPAPGLHASLRAIVDEIVDRGESLPVILRFPQVLAGRVKHLNEAFQAAINEYNYSGHYQGVFPIKVNQRRAVVETVAAAGYDYAHGLEAGSKAELALCLAQKMHPDALLCCNGFKDDGFIKLALWGRTLGKNVVITIEKFTELDRILKQAKALGVKPAVGVRFKLHARGSGQWEESGGDQAKFGLNAYELLRVVERLKEENMLDSLVMLHTHIGSQITDIRRVKVAVREAAQTYAGLIAAGADLKYLNVGGGLGVDYDGSKTTFYASMNYTVKEYAADIVYTVQEVCKAREVPEPVIVSESGRALTAHHAVLILPVVDVTGPTRNLEDQELTVPGEDSHQIVRDMYETLENISMRNYRESYNDAVGDKQTLHNLFDLGYVTLEDRARGEALFNAILRKIAKLIQGEKYVPDELEDLQKVLADKFICNFSLFQSLPDNWAIGALFPIVPLDRLNEQPTRQATLVDITCDSDGKVEKFIDLRDVKATLPLHEPGDRPYYLGAFLMGAYQDVLGSAHNLFGKVSEAHVTVRPGGRFNIDLFVRGQKARRMIESMGYEEPMLRDAIEDQADAAIGRGTLTQEQEHELLEDYGEELLGYTYLEYES	not soluble
MSLNNPTPKIDQTNNIVIGQKINPDKMHRAKEFRRQMTPAEKILWQHLRGNRLNGLHFRRQQIIDGFIADFYCHAARLVIEVDGKIHELQAEYDAERDRVLLARGLRLLRVKNEEVVQEIDQVLMLISEVCCEETEGHHHHHH	soluble
MGSDKIHHHHHHMRIGVIGLGRIGTIHAENLKMIDDAILYAISDVREDRLREMKEKLGVEKAYKDPHELIEDPNVDAVLVCSSTNTHSELVIACAKAKKHVFCEKPLSLNLADVDRMIEETKKADVILFTGFNRRFDRNFKKLKEAVENGTIGKPHVLRITSRDPAPPPLDYIRVSGGIFLDMTIHDFDMARYIMGEEVEEVFADGSVLVDEEIGKAGDVDTAVVVLRFKSGALGVIDNSRRAVYGYDQRIEVFGSKGRIFADNVRETTVVLTDEQGDRGSRYLYFFLERYRDSYLEELKTFIKNVKSGEPPAVSGEDGKMALLLGYAAKKSLEEKRSVKLEEVIG	not soluble
MRLDHLRLQNFRCYEDAHFDFQPGFNLVVGVNGSGKTSLLLGVAECLIPYGNAMGQGQEILSKEDVRFVIDRHEGRSRFERKFPVFIRADGDIFDLPNWRAVRLLEPWEGGVDPSSLSHLSAVLARNNAGEQIDFPVLAFYRANRRWSSARISAEFAAQQRTSRFDGYANWFDAVADLRDFESWLIARTLERLQDRLDSTPTVEREDELEWVNRAIRLAIPDAHDLRYDLRLQSLLVDMGEGNAVPFHELSDGQRSLIALIADIARRMCVLNPHIGKDVLANTGGIVIIDELDIHLHPAWQRNIAPTLKKAFPKVQFIATSHSPQVIGSLQPGEVILLKNGDSSHPRATYGLDSSTILEEVMGVPQREPEIEVLLDELFSTLENNELEKARLQLDALKKKAPDLPEFAGAEALLKRKELIGRLEHHHHHH	soluble
GSHNATSGHEDMPVERILEAELAVEPKTESYGDMNMENSTNDPVTNICHAADKQLFTLVEWAKRIPHFSDLTLEDQVILLRAGWNELLIASFSHRSVSVQDGILLATGLHVHRSSAHSAGVGSIFDRVLTELVSKMKDMQMDKSELGCLRAIVLFNPDAKGLSNPSEVETLREKVYATLEAYTKQKYPEQPGRFAKLLLRLPALRSIGLKCLEHLFFFKLIGDTPIDTFLMEMLETPLQIT	soluble
MPFKDQLFLASQYLAPHHLVSRLMGRAADCRAPEIKNRMIARFVRRYNVDMSEALVEDPLAYASFNDFFTRALKPDARPLDDEPGAALCPADGAISQIGAIDNGRIFQAKGHSFGLTDLLGGDAERAAPFAGGQFATIYLSPRDYHRVHMPLAGTLREMVHVPGRLFSVNPLTARSVPELFARNERVACLFDTEHGPMALVLVGAMIVASIETVWAGLVTPHKRQVRSVRYDAAARAPIHLDKGAEMGRFKLGSTVIVLFGPKRLRWLDLPSVRGPVRMGETLALPASTAISFPESELEHHHHHH	not soluble
MNPITNIKNQNRMNERELSLGYAGDLKKSWHQTYKDSAWIYIGGLSYALSEGDVIAVFSQYGEVMNINLIRDKDTGKSKGFAFLCYKDQRSTILAVDNFNGISLHKRMIRVDHVEEYKVPKYKEDADDETKRLWEEGCAPKPVMREAAPMEVQEQRIKKAKEVLLDIGDVDEELLKKIKKDKKKAKKEKKREKKRAKKIRKLEKKAARDPDGDWNNKAKLIDKVVAEDDLYGENKHFDFGKKKEVEEVKHNPRPDFEKADWRDIEIWKVIREREKAEKAARGETSEAWGPEDHYVSKRYQGR	not soluble
